Measurements as given in publication PMC2779898.

Columns and labels:
Test in all cases: EMSA
PF1488 = molecular target: T1, PF1488 (Pyrococcus furiosus, UniProt Q8U0U4 1-222)
T1 sequence: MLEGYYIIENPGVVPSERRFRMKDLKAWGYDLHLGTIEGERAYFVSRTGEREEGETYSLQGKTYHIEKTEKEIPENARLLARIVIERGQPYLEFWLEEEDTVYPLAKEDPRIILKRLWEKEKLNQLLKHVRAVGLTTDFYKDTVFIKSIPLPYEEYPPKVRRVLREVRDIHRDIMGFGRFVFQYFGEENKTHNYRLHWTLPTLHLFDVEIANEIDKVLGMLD

PF0547 = molecular target: T2, PF0547 (Pyrococcus furiosus, UniProt Q8U3C3 1-448)
T2 sequence: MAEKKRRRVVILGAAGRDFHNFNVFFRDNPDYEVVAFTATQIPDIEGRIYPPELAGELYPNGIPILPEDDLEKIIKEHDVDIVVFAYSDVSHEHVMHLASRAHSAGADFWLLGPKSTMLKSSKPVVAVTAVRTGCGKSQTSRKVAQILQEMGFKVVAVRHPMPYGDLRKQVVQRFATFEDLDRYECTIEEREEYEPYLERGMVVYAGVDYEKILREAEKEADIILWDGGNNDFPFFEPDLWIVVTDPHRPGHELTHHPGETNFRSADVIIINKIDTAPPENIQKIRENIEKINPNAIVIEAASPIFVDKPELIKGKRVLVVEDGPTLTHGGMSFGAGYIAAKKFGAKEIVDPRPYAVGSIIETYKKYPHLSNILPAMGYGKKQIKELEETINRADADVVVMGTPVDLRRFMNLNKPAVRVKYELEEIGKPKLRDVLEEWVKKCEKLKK

PF1142 = molecular target: T3, PF1142 (Pyrococcus furiosus, UniProt Q8U1R3 1-280)
T3 sequence: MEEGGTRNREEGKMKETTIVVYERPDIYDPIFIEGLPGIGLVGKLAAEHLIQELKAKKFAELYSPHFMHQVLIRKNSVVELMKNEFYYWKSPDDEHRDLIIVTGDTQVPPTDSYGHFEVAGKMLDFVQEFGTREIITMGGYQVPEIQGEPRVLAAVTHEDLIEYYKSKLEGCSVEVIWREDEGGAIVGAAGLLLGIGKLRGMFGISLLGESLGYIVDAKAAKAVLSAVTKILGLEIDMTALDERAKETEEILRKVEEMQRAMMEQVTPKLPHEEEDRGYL

PF1913 = molecular target: T4, PF1913 (Pyrococcus furiosus, UniProt Q8TZS1 1-157)
T4 sequence: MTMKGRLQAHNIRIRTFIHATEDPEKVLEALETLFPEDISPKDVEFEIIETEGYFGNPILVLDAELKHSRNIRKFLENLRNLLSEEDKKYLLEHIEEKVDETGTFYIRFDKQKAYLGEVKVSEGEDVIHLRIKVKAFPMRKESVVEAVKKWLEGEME

Measured: binding result

GAAACAAGGAGAAAUGGUUCGUGUCCU (structured_RNA) [MPOR-27]
no binding: all assays above
